The source of these data is the supplement of paper PMC9233669.

This sample holds only a part of the variants without activity.

One data set deals with biotinyl-Phe-oxazolone. Briefly: self-aminoacylation, catalytic enhancement (BFO) (fold over background); higher = more active; k-Seq, kA / k0A0; sequences stand for … in GGGAAUGGAUCCACAUCUACGAAUUC…UUCACUGCAGACUUGACGAAGCUG
A digest of the protocol:
(§1)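 Each biotinyl-aminoacyl-oxazolone, at 2–1250 μM, was incubated with mutagenized RNA pools (0.43 μM) carrying a 21-nt variable region. The 50 μL reactions contained HEPES/NaCl/KCl/MgCl2/CaCl2 buffer with 5% acetonitrile at pH 6.9–7.0 and ran for 90 minutes at room temperature. After streptavidin capture, RNA was measured by qPCR in triplicate and by Illumina sequencing, and catalytic enhancement was calculated as median kA over the uncatalyzed rate from a pseudo-first-order fit of per-sequence fraction reacted.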

The subject of another data set is biotinyl-Ile-oxazolone. Briefly: self-aminoacylation, catalytic enhancement (BIO) (fold over background); higher = more active; k-Seq, kA / k0A0; sequences stand for … in GGGAAUGGAUCCACAUCUACGAAUUC…UUCACUGCAGACUUGACGAAGCUG
In outline: as §1

A further data set concerns biotinyl-Met-oxazolone. Briefly: self-aminoacylation, catalytic enhancement (BMO) (fold over background); higher = more active; k-Seq, kA / k0A0; sequences stand for … in GGGAAUGGAUCCACAUCUACGAAUUC…UUCACUGCAGACUUGACGAAGCUG
A digest of the protocol: as §1

The subject of the next data set is biotinyl-Val-oxazolone. The data set can be described thus: self-aminoacylation, catalytic enhancement (BVO) (fold over background); higher = more active; k-Seq, kA / k0A0; sequences stand for … in GGGAAUGGAUCCACAUCUACGAAUUC…UUCACUGCAGACUUGACGAAGCUG
In outline:
as §1

The subject of the next data set is biotinyl-Leu-oxazolone. Briefly: self-aminoacylation, catalytic enhancement (BLO) (fold over background); higher = more active; k-Seq, kA / k0A0; sequences stand for … in GGGAAUGGAUCCACAUCUACGAAUUC…UUCACUGCAGACUUGACGAAGCUG
A digest of the protocol: as §1

The next data set concerns biotinyl-Trp-oxazolone. The data set can be described thus: self-aminoacylation, catalytic enhancement (BWO) (fold over background); higher = more active; k-Seq, kA / k0A0; sequences stand for … in GGGAAUGGAUCCACAUCUACGAAUUC…UUCACUGCAGACUUGACGAAGCUG
A digest of the protocol:
as §1

Regarding “AUUCAACUAGGUCAUCGGGCG [Fam2.2 aminoacylation ribozyme variant]”, the self-aminoacylation with biotinyl-Phe-oxazolone was determined as 5.35; in the data set with biotinyl-Ile-oxazolone, 2.48; with biotinyl-Met-oxazolone, 2.73; with biotinyl-Val-oxazolone, 2.36; in the data set on biotinyl-Leu-oxazolone it was 3.67; with biotinyl-Trp-oxazolone, 2.46.

Take “AUUGACCUAGGUCCUCGGGUG [Fam2.2 aminoacylation ribozyme variant]”: the self-aminoacylation in the data set on biotinyl-Phe-oxazolone amounted to 29; in the data set with biotinyl-Ile-oxazolone, 4.32; in the data set on biotinyl-Met-oxazolone, 4.64; with biotinyl-Val-oxazolone, 3.24; in the data set on biotinyl-Leu-oxazolone it was 5.76; with biotinyl-Trp-oxazolone, 5.43.

For the sequence “AUUCACCUAGCUCAUCUGGUG [Fam2.2 aminoacylation ribozyme variant]”, the self-aminoacylation in the data set with biotinyl-Phe-oxazolone turned out to be 5.43; in the data set on biotinyl-Ile-oxazolone it was 1.17; in the data set with biotinyl-Met-oxazolone, 1.3; with biotinyl-Val-oxazolone it was 1.05; with biotinyl-Leu-oxazolone it was 1.52; with biotinyl-Trp-oxazolone it was 0.967.

As for “AUUCACCUCGGUCAUGGGGUG [Fam2.2 aminoacylation ribozyme variant]”, the self-aminoacylation in the data set with biotinyl-Phe-oxazolone stood at 28; in the data set with biotinyl-Ile-oxazolone it was 2.57; in the data set on biotinyl-Met-oxazolone it was 3.94; in the data set with biotinyl-Val-oxazolone, 2.96; with biotinyl-Leu-oxazolone it was 4.31; with biotinyl-Trp-oxazolone it was 4.7.

Take “AUUCACCUCGGCCAUCGGGUG [Fam2.2 aminoacylation ribozyme variant]”: the self-aminoacylation was determined as 56.7 in the data set on biotinyl-Phe-oxazolone; 4.23 in the data set on biotinyl-Ile-oxazolone; 6.8 with biotinyl-Met-oxazolone; 5.61 in the data set with biotinyl-Val-oxazolone; 7.44 with biotinyl-Leu-oxazolone; 6.78 with biotinyl-Trp-oxazolone.

For “AUUACCCUAGUCGUCGAGUGA [Fam2.1 aminoacylation ribozyme variant]”, the self-aminoacylation with biotinyl-Phe-oxazolone came to 1.04; with biotinyl-Ile-oxazolone it was 0.866; in the data set on biotinyl-Met-oxazolone, 0.893; in the data set with biotinyl-Val-oxazolone it was 0.97; in the data set with biotinyl-Leu-oxazolone it was 0.845; with biotinyl-Trp-oxazolone, 0.759.

Take “AUCCACCUAGGUCAUCGCGUG [Fam2.2 aminoacylation ribozyme variant]”: the self-aminoacylation with biotinyl-Phe-oxazolone was 88.1; with biotinyl-Ile-oxazolone, 7.45; in the data set with biotinyl-Met-oxazolone, 8.4; in the data set on biotinyl-Val-oxazolone, 7.73; in the data set with biotinyl-Leu-oxazolone it was 13.9; with biotinyl-Trp-oxazolone, 8.63.

Consider “AUUCACCUAGGUCAGCUGGUG [Fam2.2 aminoacylation ribozyme variant]”, for which the self-aminoacylation in the data set with biotinyl-Phe-oxazolone worked out at 15.1; with biotinyl-Ile-oxazolone, 1.92; with biotinyl-Met-oxazolone it was 2.56; in the data set on biotinyl-Val-oxazolone, 1.64; in the data set with biotinyl-Leu-oxazolone, 2.7; in the data set with biotinyl-Trp-oxazolone, 1.7.

Consider “CUACUUCAAGCAAUGGGUCUG [Fam1A.1 aminoacylation ribozyme variant]”, for which the self-aminoacylation came out at 0.863 with biotinyl-Phe-oxazolone; 1.02 with biotinyl-Ile-oxazolone; 0.934 in the data set on biotinyl-Met-oxazolone; 0.998 in the data set with biotinyl-Val-oxazolone; 0.852 in the data set with biotinyl-Leu-oxazolone; 1.09 with biotinyl-Trp-oxazolone.

Regarding “AUAACCCUGGUCAUGGAGUGA [Fam2.1 aminoacylation ribozyme variant]”, the self-aminoacylation with biotinyl-Phe-oxazolone was determined as 14.6; in the data set with biotinyl-Ile-oxazolone it was 2.6; in the data set on biotinyl-Met-oxazolone it was 4.2; in the data set on biotinyl-Val-oxazolone, 2.48; in the data set with biotinyl-Leu-oxazolone, 4.08; with biotinyl-Trp-oxazolone it was 4.89.

Turning to “AUUCCCCUGGUCCUCGAGUGA [Fam2.1 aminoacylation ribozyme variant]”, the self-aminoacylation in the data set on biotinyl-Phe-oxazolone stood at 42.5; with biotinyl-Ile-oxazolone, 3.65; with biotinyl-Met-oxazolone, 6.08; with biotinyl-Val-oxazolone, 3.77; in the data set on biotinyl-Leu-oxazolone it was 7.24; in the data set with biotinyl-Trp-oxazolone, 6.87.

With “AUUACCAUGGACAUCGAGUGA [Fam2.1 aminoacylation ribozyme variant]”, the self-aminoacylation amounted to 24.1 in the data set on biotinyl-Phe-oxazolone; 2.91 in the data set on biotinyl-Ile-oxazolone; 6.51 with biotinyl-Met-oxazolone; 3.14 in the data set on biotinyl-Val-oxazolone; 6.81 with biotinyl-Leu-oxazolone; 8.17 in the data set on biotinyl-Trp-oxazolone.

Consider “ACGUAUGCUAAUAGUCGCAAG [Fam3.1 aminoacylation ribozyme variant]”, for which the self-aminoacylation in the data set on biotinyl-Phe-oxazolone stood at 1.96; in the data set on biotinyl-Ile-oxazolone, 1.61; with biotinyl-Met-oxazolone, 1.35; in the data set with biotinyl-Val-oxazolone it was 1.43; with biotinyl-Leu-oxazolone it was 1.72; in the data set with biotinyl-Trp-oxazolone, 1.29.

With “AUUGACGUAGGUCAUCGGGUG [Fam2.2 aminoacylation ribozyme variant]”, the self-aminoacylation in the data set on biotinyl-Phe-oxazolone amounted to 30.5; in the data set with biotinyl-Ile-oxazolone, 2.26; in the data set with biotinyl-Met-oxazolone it was 4.18; in the data set on biotinyl-Val-oxazolone, 3.22; in the data set with biotinyl-Leu-oxazolone, 3.27; in the data set on biotinyl-Trp-oxazolone it was 4.06.

On to “AAGUUUGCUAAUAGUAGCAUG [Fam3.1 aminoacylation ribozyme variant]”, for which the self-aminoacylation in the data set with biotinyl-Phe-oxazolone was 1.67; in the data set with biotinyl-Ile-oxazolone, 1.04; in the data set with biotinyl-Met-oxazolone, 0.815; in the data set on biotinyl-Val-oxazolone, 0.851; in the data set with biotinyl-Leu-oxazolone it was 0.991; with biotinyl-Trp-oxazolone, 1.03.

As for “AUUCACGUAGGUCAUCGUGUG [Fam2.2 aminoacylation ribozyme variant]”, the self-aminoacylation in the data set on biotinyl-Phe-oxazolone turned out to be 7.45; with biotinyl-Ile-oxazolone it was 1.15; with biotinyl-Met-oxazolone, 1.57; in the data set on biotinyl-Val-oxazolone, 1.28; with biotinyl-Leu-oxazolone it was 1.82; with biotinyl-Trp-oxazolone it was 1.79.

As for “CUACUUCAAACAUUCGGUCCG [Fam1A.1 aminoacylation ribozyme variant]”, the self-aminoacylation was 0.323 in the data set on biotinyl-Phe-oxazolone; 0.823 with biotinyl-Ile-oxazolone; 0.978 with biotinyl-Met-oxazolone; 0.884 in the data set with biotinyl-Val-oxazolone; 0.959 in the data set with biotinyl-Leu-oxazolone; 1.52 with biotinyl-Trp-oxazolone.

As for “AUUCACCUAGAUGAUCGGGUG [Fam2.2 aminoacylation ribozyme variant]”, the self-aminoacylation in the data set on biotinyl-Phe-oxazolone came out at 13.7; in the data set on biotinyl-Ile-oxazolone, 2.32; with biotinyl-Met-oxazolone, 2.77; with biotinyl-Val-oxazolone it was 2.62; in the data set with biotinyl-Leu-oxazolone, 2.71; in the data set on biotinyl-Trp-oxazolone, 3.34.

“CUACUUCAAACCAUCAGUCUG [Fam1A.1 aminoacylation ribozyme variant]”: the self-aminoacylation worked out at 1.08 in the data set with biotinyl-Phe-oxazolone; 0.847 in the data set with biotinyl-Ile-oxazolone; 0.695 in the data set on biotinyl-Met-oxazolone; 0.768 in the data set with biotinyl-Val-oxazolone; 0.762 in the data set with biotinyl-Leu-oxazolone; 0.593 with biotinyl-Trp-oxazolone.

With “CUACUUCAAACUAUCUGUCUG [Fam1A.1 aminoacylation ribozyme variant]”, the self-aminoacylation was found to be 1.09 in the data set with biotinyl-Phe-oxazolone; 0.869 in the data set on biotinyl-Ile-oxazolone; 0.846 in the data set with biotinyl-Met-oxazolone; 0.867 in the data set on biotinyl-Val-oxazolone; 0.767 with biotinyl-Leu-oxazolone; 0.738 with biotinyl-Trp-oxazolone.

For the sequence “CUACUUCAAAGAGUCGGUCUG [Fam1A.1 aminoacylation ribozyme variant]”, the self-aminoacylation with biotinyl-Phe-oxazolone was found to be 0.46; with biotinyl-Ile-oxazolone, 0.695; with biotinyl-Met-oxazolone, 1.13; in the data set on biotinyl-Val-oxazolone it was 0.835; in the data set with biotinyl-Leu-oxazolone, 0.849; in the data set on biotinyl-Trp-oxazolone it was 0.754.
